{
  "source": "patent US20240117073A1",
  "about": "“METHODS OF TREATING NEOPLASTIC ASTROCYTOMA” (Ludwig Institute for Cancer Research Ltd., priority 2009, published 2024)",
  "key": {"[1]": {"test_system": "xenograft U87MG (native)", "assay": "immunohistochemistry of xenograft sections", "design": "species or system human", "method": "(§1) Xenografts were excised and bisected. One half was fixed in 10% formalin/PBS before being embedded in paraffin. Four micron sections were then cut and stained with haematoxylin and eosin (H&E) for routine histological examination. The other half was embedded in Tissue Tek® OCT compound (Sakura Finetek, Torrance, CA), frozen in liquid nitrogen and stored at −80° C. Thin (5 micron) cryostat sections were cut and fixed in ice-cold acetone for 10 min followed by air drying for a further 10 min. Sections were blocked in protein blocking reagent (Lipshaw Immunon, Pittsburgh U.S.A.) for 10 min and then incubated with biotinylated primary antibody (1 mg/ml), for 30 min at room temperature (RT). All antibodies were biotinylated using the ECL™ protein biotinylation module (Amersham, Baulkham Hills, Australia), as per the manufacturer's instructions. After rinsing with PBS, sections were incubated with a streptavidin horseradish peroxidase complex for a further 30 min (Silenus, Melbourne, Australia). Following a final PBS wash the sections were exposed to 3-amino-9-ethylcarbozole (AEC) substrate (0.1 M acetic acid, 0.1 M sodium acetate, 0.02 M AEC (Sigma Chemical Co., St Louis, MO)) in the presence of hydrogen peroxide for 30 min. Sections were rinsed with water and counterstained with hematoxylin for 5 min and mounted.\n(§2) Bound antibody was detected using the Dako Envision™+HRP detection system as per manufacturer's instructions. Sections were finally rinsed with water, counterstained with hematoxylin and mounted."}, "[2]": {"test_system": "xenograft A431", "assay": "immunohistochemistry of xenograft sections", "design": "species or system human", "method": "as §1, §2"}, "[3]": {"test_system": "U87MG xenografts", "assay": "established xenograft model", "type": "in vivo, nude mice", "conditions": "1 mg per injection", "method": "Tumor cells (3×10^6) in […] of PBS were inoculated subcutaneously into both flanks of 4-6 week old female nude mice (Animal Research Centre, Western Australia, Australia). […] Treatment was continued for a total of 6 doses, 3 times per week for 2 weeks. In the established model, treatment was started when tumors had reached a mean volume of 65±6.42 mm^3 (U87MG.Δ2-7), 84±9.07 mm^3 (U87MG), 73±7.5 mm^3 (U87MG.wtEGFR) or 201±19.09 mm^3 (A431 tumors). Tumor volume in mm^3 was determined using the formula (length×width^2)/2, where length was the longest axis and width the measurement at right angles to the length (Clark et al. (2000) Therapeutic efficacy of anti-Lewis (y) humanized 3S 193 radioimmunotherapy in a breast cancer model: enhanced activity when combined with Taxol chemotherapy. Clin. Cancer Res. 6, 3621-3628). Data was expressed as mean tumor volume±S.E. for each treatment group. Statistical analysis was performed at given time points using Student's t-test. Animals were euthanized when the xenografts reached an approximate volume of 1.5 cm^3 and the tumors excised for histological examination. This research project was approved by the Animal Ethics Committee of the Austin and Repatriation Medical Centre. […]"}, "[4]": {"test_system": "DU145 cells", "assay": "FACS binding to cell lines", "type": "cell-based, human", "description": "(§3) Clearly, mAb806 and mAb175 can recognize only a small proportion of the EGFR on cells in the presence of an autocrine stimulation loop."}, "[5]": {"test_system": "A431 cells", "assay": "FACS binding to cell lines", "type": "cell-based, human", "excerpt": "FACS data was obtained on a Coulter Epics Elite ESP by observing a minimum of 5,000 events and analyzed using EXPO (version 2) for Windows.\nAs described previously, A431 cells are human squamous carcinoma cells and express high levels of wtEGFR.\nThe estimates of antibody concentration determined for each sample by the OD Δ280 nm were utilised for FACS analyses with the adenocarcinoma cell line A431 cells (containing EGFR gene amplification). […] Control for secondary antibody alone was also included [Goat anti hu-IgG (Fc specific) FITC conjugated]."}, "[6]": {"test_system": "U87MG cells", "assay": "FACS binding to cell lines", "type": "cell-based, human", "quoted_text": "Briefly, cells were labelled with the relevant antibody (10 μg/ml) followed by fluorescein-conjugated goat anti-mouse IgG (1:100 dilution; Calbiochem San Diego, CA, USA; Becton-Dickinson PharMingen, San Diego, CA, US) as described previously (Nishikawa et al., 1994). FACS data was obtained on a Coulter Epics Elite ESP by observing a minimum of 5,000 events and analyzed using EXPO (version 2) for Windows.\nStained cells were analyzed with a FACS Calibur™ using Cell Quest™ software (Becton-Dickinson PharMingen). […] Mouse IgG2a or IgG2b was used as an isotype control.\nCells (1 3 10 6) were incubated with 5 μg/ml of the appropriate antibody or an isotype-matched negative control in PBS containing 1% HSA for 30 min at 4° C. After three washes with PBS/1% HSA, cells were incubated an additional 30 min at 4° C. with FTTC-coupled goat anti-mouse antibody (1:100 dilution; Calbiochem, San Diego, CA). After three subsequent washes, cells were analyzed on an Epics Elite ESP (Beckman Coulter, Hialeah, FL) by observing a minimum of 20,000 events and analyzed using EXPO (version 2) for Windows."}, "[7]": {"target": "T1, deglycosylated sEGFR (Homo sapiens, UniProt P00533)", "T1 construct": "sEGFR is the recombinant extracellular domain (amino acids 1-621) of the wild-type EGFR; host or cells: CHO cells", "assay": "immunoblot of PNGase F treated sEGFR", "type": "binding", "method": "To determine if carbohydrate structures are directly involved in the mAb806 epitope, the recombinant sEGFR expressed in CHO cells was treated with PNGase F to remove N-linked glycosylation."}, "[8]": {"test_system": "A431 xenografts", "assay": "preventative xenograft model", "type": "in vivo, nude mice", "method": "Tumor cells (3×10^6) in […] of PBS were inoculated subcutaneously into both flanks of 4-6 week old female nude mice (Animal Research Centre, Western Australia, Australia). […] Treatment was continued for a total of 6 doses, 3 times per week for 2 weeks. In the established model, treatment was started when tumors had reached a mean volume of 65±6.42 mm^3 (U87MG.Δ2-7), 84±9.07 mm^3 (U87MG), 73±7.5 mm^3 (U87MG.wtEGFR) or 201±19.09 mm^3 (A431 tumors). Tumor volume in mm^3 was determined using the formula (length×width^2)/2, where length was the longest axis and width the measurement at right angles to the length (Clark et al. (2000) Therapeutic efficacy of anti-Lewis (y) humanized 3S 193 radioimmunotherapy in a breast cancer model: enhanced activity when combined with Taxol chemotherapy. Clin. Cancer Res. 6, 3621-3628). Data was expressed as mean tumor volume±S.E. for each treatment group. Statistical analysis was performed at given time points using Student's t-test. Animals were euthanized when the xenografts reached an approximate volume of 1.5 cm^3 and the tumors excised for histological examination. This research project was approved by the Animal Ethics Committee of the Austin and Repatriation Medical Centre.\nThese cells contain an amplified EGFR gene and express approximately 2×10^6 receptors per cell. […]"}, "[9]": {"target": "T2, Peptide C: LEEKKGNYVVTDH(K-Biot)-OH (Homo sapiens, UniProt P00533, DELINS30-297G)", "T2 construct": "purchased Biosource, Camarillo, CA; host or cells: synthetic", "assay": "BIAcore, immobilized Peptide C", "type": "binding", "conditions": "mAbL8A4 even at 6.25 nM; mAb806 up to 100 nM (highest tested)", "method": "Peptide C was immobilized on a Streptavidin microsensor chip at a surface density of 350RU (+/−30RU). Serial dilutions of mAbs were tested for reactivity with the peptide. Blocking experiments using non-biotinylated peptide were performed to assess specificity."}, "[10]": {"target": "T3, EGFR extracted from DU145 cells (Homo sapiens, UniProt P00533)", "T3 construct": "endogenous in cells; host or cells: DU145", "assay": "immunoprecipitation and immunoblot", "type": "binding", "method": "Cells were lysed with lysis buffer (1% Triton X-IOO, 30 mM HEPES, 150 mM NaCl, […] 4-(2-aminoethyl) benzenesulfonylfluoride, 150 nM aprotinin, 1 mM E-64 protease inhibitor, 0.5 mM EDTA, and 1 mM leupeptin, pH 7.4) for 20 minutes, clarified by centrifugation at 14,000×g for 30 minutes, immunoprecipitated with the relevant antibodies at a final concentration of 5 μg/ml for 60 minutes and captured by Sepharose-A beads overnight. Samples were then eluted with 2× NuPAGE® SDS Sample Buffer (Invitrogen), resolved on NuPAGE® gels (either 3-8% or 4-12%), electro-transferred onto Immobilon®-P transfer membrane (Millipore) then probed with the relevant antibodies before detection by chemoluminescence radiography.\nas §3"}},
  "note": "Where “and” joins values, the source holds several entries; their conditions need not be identical. Identical values can stand only once. Entries after “also recorded” stand apart in the source; their conditions may differ.",
  "data": [
    {"molecule": "mAb806: murine monoclonal antibody recognizing de2-7 EGFR and amplified EGFR; VH SEQ ID NO:2, VL SEQ ID NO:4 (antibody, listed as Mus musculus, V domains shown) VH: MRVLILLWLFTAFPGVLSDVQLQESGPSLVKPSQSLSLTCTVTGYSITSDFAWNWIRQFPGNKLEWMGYISYSGNTRYNPSLKSRISITRDTSKNQFFLQLNSVTIEDTATYYCVTAGRGFPYWGQGTLVTVSA VL: MVSTAQFLAFLLLWFPGARCDILMTQSPSSMSVSLGDTVSITCHSSQDINSNIGWLQQRPGKSFKGLIYHGTNLDDEVPSRFSGSGSGADYSLTISSLESEDFADYYCVQYAQFPWTFGGGTKLEIKR", "values": [
      {"measurement": "immunohistochemical staining", "setting": "[1]", "value": "undetectable"},
      {"measurement": "immunohistochemical staining", "setting": "[2]", "value": "pos. (predominantly"},
      {"measurement": "effect on xenograft growth", "setting": "[3]", "value": "no effect"},
      {"measurement": "FACS binding", "setting": "[4]", "value": "bind to DU145 cells"},
      {"measurement": "FACS staining", "setting": "[5]", "value": "Low, but highly reproducible, binding"},
      {"measurement": "FACS staining", "setting": "[6]", "value": "binding levels similar to the control antibody; also recorded: not with U87MG cells"},
      {"measurement": "binding to deglycosylated sEGFR", "setting": "[7]", "value": "clearly bound the deglycosylated material"},
      {"measurement": "effect on xenograft growth", "setting": "[8]; 0.1 mg", "value": "inhibited significantly"},
      {"measurement": "mean tumor volume", "setting": "[8]; day 13, 1 mg injection", "value": "260±60.33 mm^3 and 260±60 mm^3"},
      {"measurement": "reactivity with Peptide C", "setting": "[9]", "value": "did not show detectable specific reactivity"},
      {"measurement": "immunoprecipitation of EGFR", "setting": "[10]", "value": "immunoprecipitate a small proportion of the EGFR"}
    ]}
  ]
}
